According to publication PMC7939477:

Target: PdGH110B (GH110 family α-1,3-galactosidase from Pseudoalteromonas distincta U2A) (Pseudoalteromonas distincta U2A)
Assay: dynamic light scattering; PdGH110B in solution at protein concentrations of 0.18, 0.37 and 0.73 mg/ml; monomer to dimer

stoichiometry N: 2
Substance: PdGH110B (GH110 family α-1,3-galactosidase from Pseudoalteromonas distincta U2A) (enzyme)
